Measured values from US20230279138A1 (CHIA TAI TIANQING PHARMACEUTICAL GROUP, published 2023).

T1: CD20 on Raji cells (CD20+/CD3- cells) (human, UniProt P11836 1-297)
T1 construct: whole, on cells; Raji, Ramos and NAMALWA in the killing assays; also called Ramos; NAMALWA
T1 sequence (looked up): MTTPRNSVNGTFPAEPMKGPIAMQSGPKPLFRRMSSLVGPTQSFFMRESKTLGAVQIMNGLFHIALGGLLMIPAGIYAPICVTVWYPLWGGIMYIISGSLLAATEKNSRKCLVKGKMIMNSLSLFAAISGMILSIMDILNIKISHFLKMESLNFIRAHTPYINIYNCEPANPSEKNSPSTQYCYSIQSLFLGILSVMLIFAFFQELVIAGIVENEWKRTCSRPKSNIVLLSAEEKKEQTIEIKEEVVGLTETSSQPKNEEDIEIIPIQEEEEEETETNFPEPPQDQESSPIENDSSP


Tests used:
[1] = molecular target: T1, CD20 on Raji cells (CD20+/CD3- cells); experiment: flow cytometry on Raji cells (CD20+/CD3-)
Protocol: (§1) After incubation, the cells were washed twice with cold 1% BSA/1×PBS. […] After being washed twice, the geometric mean fluorescence (MFI) of the stained cells was measured using a FACS Canto II […] (BD Biosciences). Wells containing no antibody or containing only fluorescent secondary antibody were used to establish background fluorescence. The EC50 values for cell binding were determined using GraphPad Prism 5 software (GraphPad Software, La Jolla, Calif.); each value was calculated by four-parameter non-linear regression analysis.

[2] = molecular target: T2, CD3 on Jurkat cells (CD3+/CD20- cells) (human, UniProt P07766 23-207; P04234 22-171; P09693 23-182); experiment: flow cytometry on Jurkat 2B8 cells (CD3+/CD20-)
T2 construct: whole, on cells; also called Jurkat 2B8
Protocol: as §1

T2 sequence (P07766 23-207, chain 1 of 3): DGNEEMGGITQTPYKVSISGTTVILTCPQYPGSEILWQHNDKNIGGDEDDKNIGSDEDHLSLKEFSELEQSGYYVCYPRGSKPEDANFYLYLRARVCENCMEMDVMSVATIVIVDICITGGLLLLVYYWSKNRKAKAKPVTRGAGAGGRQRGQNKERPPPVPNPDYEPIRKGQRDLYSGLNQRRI
T2 sequence (P04234 22-171, chain 2 of 3): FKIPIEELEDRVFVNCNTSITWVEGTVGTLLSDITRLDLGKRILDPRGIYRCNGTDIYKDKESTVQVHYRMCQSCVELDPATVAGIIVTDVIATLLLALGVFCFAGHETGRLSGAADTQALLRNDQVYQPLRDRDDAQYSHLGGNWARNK
T2 sequence (P09693 23-182, chain 3 of 3): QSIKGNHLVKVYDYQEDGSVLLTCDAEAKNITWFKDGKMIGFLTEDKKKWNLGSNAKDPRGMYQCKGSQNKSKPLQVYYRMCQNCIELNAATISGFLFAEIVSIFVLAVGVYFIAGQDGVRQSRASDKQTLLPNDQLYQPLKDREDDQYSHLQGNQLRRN

EC50 [1] [nM] | TOP MFI [1] [MFI] | EC50 [2] [nM] | TOP MFI [2] [MFI] | Binder
1.3 | 55400 | 26.6 | 536 | W3278-U3T2.F18R-1.uIgG4.SP (bispecific antibody, Human IgG4 S228P, knobs-into-holes; also called W3278 BsAb; WBP3278 BsAb) heavy 1: EVQLVESGGGLVQPGRSLRLSCAASGFTFNDYAMHWVRQAPGKGLEWVSTISWNSGSIGYADSVKGRFTISRDNAKKSLYLQMNSLRAEDTALYYCAKDIQYGNYYYGMDVWGQGTTVTVSSASTKGPSVFPLAPCSRSTSESTAALGCLVKDYFPEPVTVSWNSGALTSGVHTFPAVLQSSGLYSLSSVVTVPSSSLGTKTYTCNVDHKPSNTKVDKRVGGGGSGGGGSQVQLVQSGAEVKKPGSSVKVSCKASGYSFTTYYIHWVRQAPGQGLEWMGWIFPGNDNIKYSEKFKGRVTITADKSTSTAYMELSSLRSEDTAVYYCAIDSVSIYYFDYWGQGTLVTVLEDLKNVFPPEVAVFEPSEAEISHTQKATLVCLATGFYPDHVELSWWVNGKEVHSGVCTDPQPLKEQPALQDSRYALSSRLRVSATFWQNPRNHFRCQVQFYGLSENDEWTQDRAKPVTQIVSAEAWGRYGPPCPPCPAPEFLGGPSVFLFPPKPKDTLMISRTPEVTCVVVDVSQEDPEVQFNWYVDGVEVHNAKTKPREEQFNSTYRVVSVLTVLHQDWLNGKEYKCKVSNKGLPSSIEKTISKAKGQPREPQVYTLPPCQEEMTKNQVSLWCLVKGFYPSDIAVEWESNGQPENNYKTTPPVLDSDGSFFLYSRLTVDKSRWQEGNVFSCSVMHEALHNHYTQKSLSLSLG heavy 2: EVQLVESGGGLVQPGRSLRLSCAASGFTFNDYAMHWVRQAPGKGLEWVSTISWNSGSIGYADSVKGRFTISRDNAKKSLYLQMNSLRAEDTALYYCAKDIQYGNYYYGMDVWGQGTTVTVSSASTKGPSVFPLAPCSRSTSESTAALGCLVKDYFPEPVTVSWNSGALTSGVHTFPAVLQSSGLYSLSSVVTVPSSSLGTKTYTCNVDHKPSNTKVDKRVESKYGPPCPPCPAPEFLGGPSVFLFPPKPKDTLMISRTPEVTCVVVDVSQEDPEVQFNWYVDGVEVHNAKTKPREEQFNSTYRVVSVLTVLHQDWLNGKEYKCKVSNKGLPSSIEKTISKAKGQPREPQVCTLPPSQEEMTKNQVSLSCAVKGFYPSDIAVEWESNGQPENNYKTTPPVLDSDGSFFLVSRLTVDKSRWQEGNVFSCSVMHEALHNHYTQKSLSLSLG light 1: not shown light 2: DIVMTQSPDSLAVSLGERATINCKSSQSLLNSRTRKNYLAWYQQKPGQPPKLLIYWASTRKSGVPDRFSGSGSGTDFTLTISSLQAEDVAVYYCTQSFILRTFGGGTKVEIKPDIQNPDPAVYQLRDSKSSDKSVCLFTDFDSQTQVSQSKDSDVYITDKCVLDMRSMDFKSNSAVAWSQKSDFACANAFQNSIIPEDTFFPSPESS
85.3 | 64900 | 17.3 | 7360 | W3278-T3U2.F17R-1.uIgG4.SP (bispecific antibody, also called W3278 BsAb; WBP3278 BsAb) heavy 1: QVQLVQSGAEVKKPGSSVKVSCKASGFAFTDYYIHWVRQAPGQGLEWMGWISPGNVNTKYNENFKGRVTITADKSTSTAYMELSSLRSEDTAVYYCARDGYSLYYFDYWGQGTLVTVLEDLKNVFPPEVAVFEPSEAEISHTQKATLVCLATGFYPDHVELSWWVNGKEVHSGVCTDPQPLKEQPALQDSRYALSSRLRVSATFWQNPRNHFRCQVQFYGLSENDEWTQDRAKPVTQIVSAEAWGRGGGGSGGGGSQVQLQQPGAELVKPGASVKMSCKASGYTFTSYNMHWVKQTPGRGLEWIGAIYPGNGDTSYNQKFKGKATLTADKSSSTAYMQLSSLTSEDSAVYYCARSTYYGGDWYFNVWGAGTTVTVSAASTKGPSVFPLAPCSRSTSESTAALGCLVKDYFPEPVTVSWNSGALTSGVHTFPAVLQSSGLYSLSSVVTVPSSSLGTKTYTCNVDHKPSNTKVDKRVESKYGPPCPPCPAPEFLGGPSVFLFPPKPKDTLMISRTPEVTCVVVDVSQEDPEVQFNWYVDGVEVHNAKTKPREEQFNSTYRVVSVLTVLHQDWLNGKEYKCKVSNKGLPSSIEKTISKAKGQPREPQVYTLPPCQEEMTKNQVSLWCLVKGFYPSDIAVEWESNGQPENNYKTTPPVLDSDGSFFLYSRLTVDKSRWQEGNVFSCSVMHEALHNHYTQKSLSLSLG heavy 2: QVQLQQPGAELVKPGASVKMSCKASGYTFTSYNMHWVKQTPGRGLEWIGAIYPGNGDTSYNQKFKGKATLTADKSSSTAYMQLSSLTSEDSAVYYCARSTYYGGDWYFNVWGAGTTVTVSAASTKGPSVFPLAPCSRSTSESTAALGCLVKDYFPEPVTVSWNSGALTSGVHTFPAVLQSSGLYSLSSVVTVPSSSLGTKTYTCNVDHKPSNTKVDKRVESKYGPPCPPCPAPEFLGGPSVFLFPPKPKDTLMISRTPEVTCVVVDVSQEDPEVQFNWYVDGVEVHNAKTKPREEQFNSTYRVVSVLTVLHQDWLNGKEYKCKVSNKGLPSSIEKTISKAKGQPREPQVCTLPPSQEEMTKNQVSLSCAVKGFYPSDIAVEWESNGQPENNYKTTPPVLDSDGSFFLVSRLTVDKSRWQEGNVFSCSVMHEALHNHYTQKSLSLSLG light 1: DIVMTQSPDSLAVSLGERATINCKSSQSLLNSRTRKNYLAWYQQKPGQPPKLLIYWASTRQSGVPDRFSGSGSGTDFTLTISSLQAEDVAVYYCTQSHTLRTFGGGTKVEIKPDIQNPDPAVYQLRDSKSSDKSVCLFTDFDSQTQVSQSKDSDVYITDKCVLDMRSMDFKSNSAVAWSQKSDFACANAFQNSIIPEDTFFPSPESS light 2: QIVLSQSPAILSASPGEKVTMTCRASSSVSYIHWFQQKPGSSPKPWIYATSNLASGVPVRFSGSGSGTSYSLTISRVEAEDAATYYCQQWTSNPPTFGGGTKLEIKRTVAAPSVFIFPPSDEQLKSGTASVVCLLNNFYPREAKVQWKVDNALQSGNSQESVTEQDSKDSTYSLSSTLTLSKADYEKHKVYACEVTHQGLSSPVTKSFNRGEC
> 1000 | 55200 | 58.9 | 6750 | W3278-T3U2.F16-1.uIgG4.SP (bispecific antibody, Human IgG4 S228P, knobs-into-holes; also called W3278 BsAb; WBP3278 BsAb) heavy 1: QVQLVQSGAEVKKPGSSVKVSCKASGFAFTDYYIHWVRQAPGQGLEWMGWISPGNVNTKYNENFKGRVTITADKSTSTAYMELSSLRSEDTAVYYCARDGYSLYYFDYWGQGTLVTVLEDLKNVFPPEVAVFEPSEAEISHTQKATLVCLATGFYPDHVELSWWVNGKEVHSGVCTDPQPLKEQPALQDSRYALSSRLRVSATFWQNPRNHFRCQVQFYGLSENDEWTQDRAKPVTQIVSAEAWGRYGPPCPPCPAPEFLGGPSVFLFPPKPKDTLMISRTPEVTCVVVDVSQEDPEVQFNWYVDGVEVHNAKTKPREEQFNSTYRVVSVLTVLHQDWLNGKEYKCKVSNKGLPSSIEKTISKAKGQPREPQVYTLPPCQEEMTKNQVSLWCLVKGFYPSDIAVEWESNGQPENNYKTTPPVLDSDGSFFLYSRLTVDKSRWQEGNVFSCSVMHEALHNHYTQKSLSLSLG heavy 2: QVQLQQPGAELVKPGASVKMSCKASGYTFTSYNMHWVKQTPGRGLEWIGAIYPGNGDTSYNQKFKGKATLTADKSSSTAYMQLSSLTSEDSAVYYCARSTYYGGDWYFNVWGAGTTVTVSAASTKGPSVFPLAPCSRSTSESTAALGCLVKDYFPEPVTVSWNSGALTSGVHTFPAVLQSSGLYSLSSVVTVPSSSLGTKTYTCNVDHKPSNTKVDKRVGGGGSGGGGSQVQLQQPGAELVKPGASVKMSCKASGYTFTSYNMHWVKQTPGRGLEWIGAIYPGNGDTSYNQKFKGKATLTADKSSSTAYMQLSSLTSEDSAVYYCARSTYYGGDWYFNVWGAGTTVTVSAASTKGPSVFPLAPCSRSTSESTAALGCLVKDYFPEPVTVSWNSGALTSGVHTFPAVLQSSGLYSLSSVVTVPSSSLGTKTYTCNVDHKPSNTKVDKRVESKYGPPCPPCPAPEFLGGPSVFLFPPKPKDTLMISRTPEVTCVVVDVSQEDPEVQFNWYVDGVEVHNAKTKPREEQFNSTYRVVSVLTVLHQDWLNGKEYKCKVSNKGLPSSIEKTISKAKGQPREPQVCTLPPSQEEMTKNQVSLSCAVKGFYPSDIAVEWESNGQPENNYKTTPPVLDSDGSFFLVSRLTVDKSRWQEGNVFSCSVMHEALHNHYTQKSLSLSLG light 1: DIVMTQSPDSLAVSLGERATINCKSSQSLLNSRTRKNYLAWYQQKPGQPPKLLIYWASTRQSGVPDRFSGSGSGTDFTLTISSLQAEDVAVYYCTQSHTLRTFGGGTKVEIKPDIQNPDPAVYQLRDSKSSDKSVCLFTDFDSQTQVSQSKDSDVYITDKCVLDMRSMDFKSNSAVAWSQKSDFACANAFQNSIIPEDTFFPSPESS light 2: QIVLSQSPAILSASPGEKVTMTCRASSSVSYIHWFQQKPGSSPKPWIYATSNLASGVPVRFSGSGSGTSYSLTISRVEAEDAATYYCQQWTSNPPTFGGGTKLEIKRTVAAPSVFIFPPSDEQLKSGTASVVCLLNNFYPREAKVQWKVDNALQSGNSQESVTEQDSKDSTYSLSSTLTLSKADYEKHKVYACEVTHQGLSSPVTKSFNRGEC
